The target of assay [1] is T1, UPF2L (near full-length UPF2, residues 121-1227) (UniProt Q9HAU5 121-1227).
T1 construct: Construct from Neu-Yilik et al. 2017; also called up-frameshift protein 2; source: E. coli BL21 Rosetta (DE3), purified (Ni-NTA, heparin, SEC)
T1 sequence (looked up): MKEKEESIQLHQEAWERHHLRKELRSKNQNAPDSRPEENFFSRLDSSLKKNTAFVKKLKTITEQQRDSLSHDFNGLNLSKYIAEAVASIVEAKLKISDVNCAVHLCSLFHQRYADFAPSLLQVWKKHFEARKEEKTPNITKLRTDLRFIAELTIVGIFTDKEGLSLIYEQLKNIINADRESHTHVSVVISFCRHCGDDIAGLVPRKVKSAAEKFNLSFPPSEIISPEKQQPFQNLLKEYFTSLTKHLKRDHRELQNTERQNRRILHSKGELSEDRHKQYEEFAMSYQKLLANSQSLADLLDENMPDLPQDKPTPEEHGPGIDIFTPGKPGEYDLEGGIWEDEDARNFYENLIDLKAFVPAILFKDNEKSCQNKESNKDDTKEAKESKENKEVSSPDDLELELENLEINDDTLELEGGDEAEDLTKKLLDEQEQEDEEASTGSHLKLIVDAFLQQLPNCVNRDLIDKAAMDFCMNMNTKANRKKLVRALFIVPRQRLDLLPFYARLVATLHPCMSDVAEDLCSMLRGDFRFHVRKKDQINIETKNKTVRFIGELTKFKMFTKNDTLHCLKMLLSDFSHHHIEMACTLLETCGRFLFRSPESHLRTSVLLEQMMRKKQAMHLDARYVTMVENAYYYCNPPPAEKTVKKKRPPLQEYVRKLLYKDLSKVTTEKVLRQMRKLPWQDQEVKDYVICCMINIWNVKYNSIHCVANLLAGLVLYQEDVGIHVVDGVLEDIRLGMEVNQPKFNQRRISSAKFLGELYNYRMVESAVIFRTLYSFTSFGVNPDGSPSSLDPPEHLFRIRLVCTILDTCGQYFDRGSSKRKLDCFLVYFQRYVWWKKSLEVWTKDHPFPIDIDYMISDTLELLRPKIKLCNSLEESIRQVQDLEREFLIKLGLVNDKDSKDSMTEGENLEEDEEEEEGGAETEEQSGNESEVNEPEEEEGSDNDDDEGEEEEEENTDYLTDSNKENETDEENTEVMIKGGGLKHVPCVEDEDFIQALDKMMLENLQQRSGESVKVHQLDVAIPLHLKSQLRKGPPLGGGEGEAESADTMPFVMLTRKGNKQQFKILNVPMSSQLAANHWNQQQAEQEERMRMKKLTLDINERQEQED
The experiment in a line: native gel or EMSA; 250 nM HEX-labelled hp-RNA mixed with the proteins, 1 h on ice; native 4%-20% Tris-glycine gel, 45 min at 150 V, 4°C; HEX label of the RNA detected; RNA diluted in 25 mM HEPES pH 7.45, 100 mM NaCl, 5% glycerol. Particulars: both partners purified.

Assay [2] deals with T2, UPF2 MIF4G domain-3 (residues 761-1054) (UniProt Q9HAU5 761-1054).
T2 construct: UPF2, third MIF4G domain, residues 761-1054; Construct from Kadlec et al. 2004; TEV site and His6 tag as said for m1; also called MIF4G-D3; D3; source: E. coli BL21 Rosetta (DE3), purified (Ni-NTA, heparin, SEC)
T2 sequence (looked up): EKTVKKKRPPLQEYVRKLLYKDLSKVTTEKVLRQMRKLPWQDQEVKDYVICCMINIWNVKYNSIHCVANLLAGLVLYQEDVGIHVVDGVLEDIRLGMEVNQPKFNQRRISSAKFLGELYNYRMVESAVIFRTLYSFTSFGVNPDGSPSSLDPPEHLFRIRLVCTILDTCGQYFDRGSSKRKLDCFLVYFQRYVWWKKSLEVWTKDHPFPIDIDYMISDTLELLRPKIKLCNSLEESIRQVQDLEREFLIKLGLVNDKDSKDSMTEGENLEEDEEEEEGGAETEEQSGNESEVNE
Described as above. Conditions: both partners purified.

B1: UPF3B (residues 41-262) (domain or fragment, UniProt Q9BZI7 41-262, looked up)
chain: DRNKEKKEALSKVVIRRLPPTLTKEQLQEHLQPMPEHDYFEFFSNDTSLYPHMYARAYINFKNQEDIILFRDRFDGYVFLDNKGQEYPAIVEFAPFQKAAKKKTKKRDTKVGTIDDDPEYRKFLESYATDNEKMTSTPETLLEEIEAKNRELIAKKTTPLLSFLKNKQRMREEKREERRRREIERKRQREEERRKWKEEEKRKRKDIEKLKKIDRIPERDKL
notes: UPF3B residues 41-262: RNA-recognition motif, NOPS-Like domain and the first coiled coil-like domain; source: E. coli, purified as described (Bufton et al. 2022)
As for B1, the binding result in assay [1] and in assay [2] was “binds” each time.

Values taken from article PMC12170185, “Dynamic RNA binding and unfolding by nonsense-mediated mRNA decay factor UPF2” (RNA, 2024).
